Experimental data reported in US11826400B2, “Neuregulin based compositions and uses thereof for preventing, treating or delaying the myocardial ischemia-reperfusion injury” (ZENSUN (SHANGHAI) SCIENCE & TECHNOLOGY LIMITED, priority 2010, dated 2023).

System: myocardial ischemia reperfusion in rat
Assay: Therapeutic effect on myocardial ischemia reperfusion in rat (coronary ligation 45 min, reperfusion 2 h, TCC staining of heart sections)
Type: in vivo, Wistar rats
Details: P<0.05
Protocol: Wistar rats (male, 200˜240 g) were divided into groups and administered with different dosages of rhNRG-1, placebo or rhThymosin-β4 (as shown in Table 1) after anaesthetized with intra-abdominal injection of 20% urethane (5 ml/kg). Thirty minutes after the drug started to be given to the rats, the anterior descending limb of the left coronary artery was ligated for 45 minutes to cause partial myocardium turned white obviously in the ligation area. After that the ligation thread was loosen to keep coronary blood flow for 2 hours and then take out the heart rapidly and wash vascular fat away with normal saline, and then freeze the heart in −30° C. for one hour.
Cut the heart parallelly from apex to base along coronary sulcus to myocardium sections with the thickness of 1 mm, and then put them into TCC dye liquor for 20 min in 37° C. in a shaker. After staining extra dye was washed immediately with water, and then the sections were put into 4% formalin for one hour. Photo and analyze the total size and the infarction size of were analyzed with Image Analysis Software. Infarction size ratio equals to the ratio of the infarction size and the total size of the myocardium section.

B1: rhNRG-1: produced by Zensun (Shanghai) Science & Technology Ltd, having the amino acids of SEQ ID NO:1 (177-237 residues of NRG-1β2 isoform) (protein, listed as Homo sapiens)
chain: SHLVKCAEKEKTFCVNGGECFMVKDLSNPSRYLCKCPNEFTGDRCQNYVMASFYKAEELYQ
Infarction size compared with Group A (placebo) (Group B, 10 μg/kg/h continuous infusion): significantly smaller than that of Group A
Infarction size compared with Group A (placebo) (Group C, 30 μg/kg/h continuous infusion): significantly smaller than that of Group A
